Values quoted from earlier work in PMC12990809.

Tests used:
Test in all cases: pulldown
Details in all cases: 20 nM protein, 1.5 uM RNA pool; 20 mM HEPES pH 7.8, 70 mM KCl, 10 mM NaCl, 10% glycerol, 2 mM DTT, 0.1 ug/uL BSA; 30 min, 4 C (protocol of this paper; not …); cited from earlier work
[1] = target: T1, estExt_fgeneshHS_pg.C_730016 (Naegleria gruberi) (UniProt D2W041)
T1 sequence: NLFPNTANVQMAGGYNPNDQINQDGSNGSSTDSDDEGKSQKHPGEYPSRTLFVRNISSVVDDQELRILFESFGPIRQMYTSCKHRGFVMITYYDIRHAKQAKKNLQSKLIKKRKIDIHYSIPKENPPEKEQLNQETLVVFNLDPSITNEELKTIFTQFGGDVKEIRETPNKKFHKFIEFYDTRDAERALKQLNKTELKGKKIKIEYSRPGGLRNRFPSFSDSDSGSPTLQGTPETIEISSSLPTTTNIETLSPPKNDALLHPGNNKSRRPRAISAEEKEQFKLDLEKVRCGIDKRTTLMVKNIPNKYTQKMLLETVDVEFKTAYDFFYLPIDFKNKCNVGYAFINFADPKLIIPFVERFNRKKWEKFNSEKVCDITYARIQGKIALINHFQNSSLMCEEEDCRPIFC

[2] = target: T2, tiar-1 (Caenorhabditis elegans) (UniProt Q95QV8)
T2 sequence: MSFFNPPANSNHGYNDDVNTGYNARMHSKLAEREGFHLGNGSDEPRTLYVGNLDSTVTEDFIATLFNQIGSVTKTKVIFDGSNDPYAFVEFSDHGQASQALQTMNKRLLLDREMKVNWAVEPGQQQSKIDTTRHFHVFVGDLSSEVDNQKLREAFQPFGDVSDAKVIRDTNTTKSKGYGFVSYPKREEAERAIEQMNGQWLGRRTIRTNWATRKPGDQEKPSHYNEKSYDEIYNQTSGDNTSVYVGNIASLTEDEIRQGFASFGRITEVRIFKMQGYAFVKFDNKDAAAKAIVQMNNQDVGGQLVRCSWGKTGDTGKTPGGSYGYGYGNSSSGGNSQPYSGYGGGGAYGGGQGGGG

[3] = target: T3, NEMVEDRAFT_v1g104011 (Nematostella vectensis) (UniProt A7S488)
T3 sequence: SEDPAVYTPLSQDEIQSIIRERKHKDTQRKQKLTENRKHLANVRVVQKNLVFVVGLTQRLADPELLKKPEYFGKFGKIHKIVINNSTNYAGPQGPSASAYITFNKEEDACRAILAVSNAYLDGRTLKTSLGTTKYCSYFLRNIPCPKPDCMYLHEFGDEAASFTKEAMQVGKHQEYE

[4] = target: T4, TVAG_129710 (Trichomonas vaginalis) (UniProt A2DI67)
T4 sequence: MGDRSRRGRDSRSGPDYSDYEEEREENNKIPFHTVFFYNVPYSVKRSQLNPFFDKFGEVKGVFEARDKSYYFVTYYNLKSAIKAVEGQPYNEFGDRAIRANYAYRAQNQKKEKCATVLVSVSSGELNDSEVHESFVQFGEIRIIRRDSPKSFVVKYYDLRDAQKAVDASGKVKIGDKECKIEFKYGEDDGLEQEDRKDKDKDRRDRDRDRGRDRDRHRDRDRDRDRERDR

ANKHD1 (Homo sapiens) = target: T5, ANKHD1 (Homo sapiens) (UniProt Q8IWZ3)
T5 sequence: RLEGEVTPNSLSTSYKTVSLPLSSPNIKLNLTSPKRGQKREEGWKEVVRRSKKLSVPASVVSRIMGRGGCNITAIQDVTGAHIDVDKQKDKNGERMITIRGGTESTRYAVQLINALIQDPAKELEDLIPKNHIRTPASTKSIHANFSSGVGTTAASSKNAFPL

[5] = target: aret (Drosophila melanogaster) (UniProt C8VV87)
aret (Drosophila melanogaster), sequence (C8VV87 entry or part of it): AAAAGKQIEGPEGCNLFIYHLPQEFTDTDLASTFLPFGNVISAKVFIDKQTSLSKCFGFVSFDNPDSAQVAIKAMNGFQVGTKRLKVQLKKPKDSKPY

[6] = target: T6, Tb09.211.0930 (Trypanosoma brucei) (UniProt Q38E63)
T6 sequence: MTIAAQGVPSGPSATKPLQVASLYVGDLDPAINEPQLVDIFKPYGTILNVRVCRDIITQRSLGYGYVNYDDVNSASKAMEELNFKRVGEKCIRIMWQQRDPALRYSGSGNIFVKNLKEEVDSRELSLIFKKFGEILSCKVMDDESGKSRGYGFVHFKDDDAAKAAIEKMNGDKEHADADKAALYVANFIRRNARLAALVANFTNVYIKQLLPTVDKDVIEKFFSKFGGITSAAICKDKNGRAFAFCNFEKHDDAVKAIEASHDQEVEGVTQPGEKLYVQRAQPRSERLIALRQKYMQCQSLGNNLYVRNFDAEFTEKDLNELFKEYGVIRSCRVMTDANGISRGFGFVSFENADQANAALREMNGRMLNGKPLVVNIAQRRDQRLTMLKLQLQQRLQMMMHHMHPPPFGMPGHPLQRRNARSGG

[7] = target: T7, syncrip (Xenopus tropicalis) (UniProt A0A8J0QJ86)
T7 sequence: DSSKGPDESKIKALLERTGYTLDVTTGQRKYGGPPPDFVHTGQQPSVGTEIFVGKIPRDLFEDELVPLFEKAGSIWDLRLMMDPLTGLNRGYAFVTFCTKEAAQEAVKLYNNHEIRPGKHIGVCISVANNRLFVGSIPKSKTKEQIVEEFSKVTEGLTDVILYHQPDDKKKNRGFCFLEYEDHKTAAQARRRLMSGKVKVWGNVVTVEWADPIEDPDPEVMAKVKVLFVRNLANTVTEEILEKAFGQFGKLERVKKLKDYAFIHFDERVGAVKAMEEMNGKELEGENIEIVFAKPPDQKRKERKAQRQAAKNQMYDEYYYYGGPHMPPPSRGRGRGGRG

[8] = target: e_gw1.09.00.326.1 (Ostreococcus tauri) (UniProt A0A090N3Z5)
e_gw1.09.00.326.1 (Ostreococcus tauri), sequence (A0A090N3Z5 entry or part of it): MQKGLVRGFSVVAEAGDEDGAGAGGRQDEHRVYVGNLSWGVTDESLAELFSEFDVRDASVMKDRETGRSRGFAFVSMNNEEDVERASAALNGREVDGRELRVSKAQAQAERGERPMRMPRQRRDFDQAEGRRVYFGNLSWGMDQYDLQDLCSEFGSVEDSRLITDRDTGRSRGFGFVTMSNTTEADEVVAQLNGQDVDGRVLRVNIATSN

PTBP1 (Homo sapiens) = PTBP1 (Homo sapiens) (UniProt P26599)
PTBP1 (Homo sapiens), sequence (P26599 other isoform, or with tags, fused parts or gaps): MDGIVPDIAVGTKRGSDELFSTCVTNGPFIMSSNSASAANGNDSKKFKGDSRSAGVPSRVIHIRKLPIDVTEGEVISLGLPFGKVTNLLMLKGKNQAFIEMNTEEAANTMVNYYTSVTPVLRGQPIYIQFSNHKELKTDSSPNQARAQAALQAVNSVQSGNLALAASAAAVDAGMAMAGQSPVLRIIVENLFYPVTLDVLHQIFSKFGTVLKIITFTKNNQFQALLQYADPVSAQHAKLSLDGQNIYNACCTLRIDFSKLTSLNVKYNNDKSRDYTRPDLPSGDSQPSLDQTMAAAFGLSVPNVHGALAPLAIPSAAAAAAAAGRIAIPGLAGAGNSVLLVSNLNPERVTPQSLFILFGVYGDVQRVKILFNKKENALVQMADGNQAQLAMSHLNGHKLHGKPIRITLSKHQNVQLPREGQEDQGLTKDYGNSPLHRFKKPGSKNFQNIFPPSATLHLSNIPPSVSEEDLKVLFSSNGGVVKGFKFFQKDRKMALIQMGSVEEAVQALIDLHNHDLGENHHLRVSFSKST

[9] = target: T8, LmjF.35.2550 (Leishmania major) (UniProt E9AF78)
T8 sequence: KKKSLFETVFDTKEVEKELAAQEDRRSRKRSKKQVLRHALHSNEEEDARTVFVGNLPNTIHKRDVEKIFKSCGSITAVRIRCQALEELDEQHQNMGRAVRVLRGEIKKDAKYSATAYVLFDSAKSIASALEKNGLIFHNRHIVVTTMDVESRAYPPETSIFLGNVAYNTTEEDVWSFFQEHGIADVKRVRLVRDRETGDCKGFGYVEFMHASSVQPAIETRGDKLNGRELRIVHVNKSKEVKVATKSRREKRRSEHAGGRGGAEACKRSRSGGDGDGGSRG

[10] = target: T9, LmjF.35.4130 (Leishmania major) (UniProt E9AFP0)
T9 sequence: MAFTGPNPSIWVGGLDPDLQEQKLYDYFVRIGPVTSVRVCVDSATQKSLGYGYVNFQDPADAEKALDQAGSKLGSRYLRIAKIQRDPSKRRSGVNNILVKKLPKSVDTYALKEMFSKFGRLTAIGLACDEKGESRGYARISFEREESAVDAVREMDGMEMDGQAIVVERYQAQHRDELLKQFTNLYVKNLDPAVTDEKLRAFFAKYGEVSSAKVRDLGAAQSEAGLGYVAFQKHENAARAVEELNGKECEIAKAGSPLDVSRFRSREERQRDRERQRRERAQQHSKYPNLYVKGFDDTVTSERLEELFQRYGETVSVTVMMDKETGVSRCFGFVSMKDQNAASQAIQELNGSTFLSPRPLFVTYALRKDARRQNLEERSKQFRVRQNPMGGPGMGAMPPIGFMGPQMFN

[11] = target: T10, TVAG_002940 (Trichomonas vaginalis) (UniProt A2EZR7)
T10 sequence: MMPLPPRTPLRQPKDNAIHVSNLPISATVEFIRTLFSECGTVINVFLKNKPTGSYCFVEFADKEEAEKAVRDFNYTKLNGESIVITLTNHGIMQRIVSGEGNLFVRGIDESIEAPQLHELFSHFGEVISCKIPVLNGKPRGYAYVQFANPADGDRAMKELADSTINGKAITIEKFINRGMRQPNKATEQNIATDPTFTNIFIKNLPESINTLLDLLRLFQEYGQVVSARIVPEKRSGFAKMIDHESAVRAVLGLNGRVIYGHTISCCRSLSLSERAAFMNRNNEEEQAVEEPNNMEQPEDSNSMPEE

[12] = target: T11, e_gw1.03.00.367.1 (Ostreococcus tauri) (UniProt Q01DB3)
T11 sequence: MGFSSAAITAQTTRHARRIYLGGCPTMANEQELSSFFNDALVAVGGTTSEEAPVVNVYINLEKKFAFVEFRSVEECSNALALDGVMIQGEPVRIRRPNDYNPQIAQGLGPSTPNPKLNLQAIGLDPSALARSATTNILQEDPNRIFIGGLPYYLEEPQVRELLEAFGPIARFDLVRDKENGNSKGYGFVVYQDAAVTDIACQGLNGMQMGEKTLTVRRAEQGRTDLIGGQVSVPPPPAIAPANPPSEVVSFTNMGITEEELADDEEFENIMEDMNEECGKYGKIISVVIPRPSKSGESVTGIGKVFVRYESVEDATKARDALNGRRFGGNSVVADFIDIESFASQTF

SRSF10 (Homo sapiens) = SRSF10 (Homo sapiens) (UniProt O75494)
SRSF10 (Homo sapiens), sequence (O75494 1-92): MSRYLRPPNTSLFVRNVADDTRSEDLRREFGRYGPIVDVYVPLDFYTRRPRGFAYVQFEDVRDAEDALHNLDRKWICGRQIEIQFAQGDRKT

[13] = target: T12, TVAG_267990 (Trichomonas vaginalis) (UniProt A2DLE8)
T12 sequence: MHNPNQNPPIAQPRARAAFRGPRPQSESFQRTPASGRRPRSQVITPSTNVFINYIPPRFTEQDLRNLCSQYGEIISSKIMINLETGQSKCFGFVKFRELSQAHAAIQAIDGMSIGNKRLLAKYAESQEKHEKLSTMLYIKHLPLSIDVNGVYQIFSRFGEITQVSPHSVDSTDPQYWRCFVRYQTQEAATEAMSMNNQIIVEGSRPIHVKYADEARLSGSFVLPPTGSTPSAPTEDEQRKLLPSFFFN

[14] = target: T13, rbm47 (Xenopus tropicalis) (UniProt A0A8J0QCA8)
T13 sequence: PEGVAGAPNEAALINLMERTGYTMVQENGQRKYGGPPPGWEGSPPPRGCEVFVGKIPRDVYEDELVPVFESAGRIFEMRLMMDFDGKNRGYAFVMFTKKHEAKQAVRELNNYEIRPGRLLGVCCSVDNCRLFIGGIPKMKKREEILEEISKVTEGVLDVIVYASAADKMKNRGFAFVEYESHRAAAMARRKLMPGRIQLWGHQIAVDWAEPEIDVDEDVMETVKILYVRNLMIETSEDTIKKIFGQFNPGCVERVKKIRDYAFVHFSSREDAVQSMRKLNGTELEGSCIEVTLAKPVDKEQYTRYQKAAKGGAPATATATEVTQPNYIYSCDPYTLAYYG

[15] = target: T14, Rb97D (Drosophila melanogaster) (UniProt Q02926)
T14 sequence: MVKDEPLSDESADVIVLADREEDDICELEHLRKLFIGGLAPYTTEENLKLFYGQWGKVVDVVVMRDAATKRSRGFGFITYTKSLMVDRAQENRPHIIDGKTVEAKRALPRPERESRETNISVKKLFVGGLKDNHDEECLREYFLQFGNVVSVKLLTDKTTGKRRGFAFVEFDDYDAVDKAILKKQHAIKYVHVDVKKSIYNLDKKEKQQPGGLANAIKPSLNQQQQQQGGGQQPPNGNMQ

[16] = target: eIF-2alpha (Drosophila melanogaster) (UniProt P41374)
eIF-2alpha (Drosophila melanogaster), sequence (P41374 whole entry): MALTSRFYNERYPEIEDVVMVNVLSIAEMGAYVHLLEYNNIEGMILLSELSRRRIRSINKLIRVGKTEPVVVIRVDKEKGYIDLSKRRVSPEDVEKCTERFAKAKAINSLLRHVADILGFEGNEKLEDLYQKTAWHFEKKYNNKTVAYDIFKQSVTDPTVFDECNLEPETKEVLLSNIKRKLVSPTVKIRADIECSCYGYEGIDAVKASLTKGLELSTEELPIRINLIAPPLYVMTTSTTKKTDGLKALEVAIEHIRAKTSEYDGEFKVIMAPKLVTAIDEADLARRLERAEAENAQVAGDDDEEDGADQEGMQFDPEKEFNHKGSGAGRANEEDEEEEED

RBM47 (Gallus gallus) = target: T15, RBM47 (Gallus gallus) (UniProt A0A8V0YMK0)
T15 sequence: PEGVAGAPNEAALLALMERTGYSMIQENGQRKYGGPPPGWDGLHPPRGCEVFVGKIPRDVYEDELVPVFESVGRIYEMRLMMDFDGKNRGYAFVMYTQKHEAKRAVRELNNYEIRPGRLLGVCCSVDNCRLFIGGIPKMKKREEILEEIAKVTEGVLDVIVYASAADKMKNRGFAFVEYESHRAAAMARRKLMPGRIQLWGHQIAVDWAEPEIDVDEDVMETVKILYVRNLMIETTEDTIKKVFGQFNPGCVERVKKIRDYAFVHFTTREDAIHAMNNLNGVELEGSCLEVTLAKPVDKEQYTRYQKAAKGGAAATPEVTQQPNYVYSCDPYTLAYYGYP

## AAUUUUG [RNAcompete motif RNCMPT00261]
[1]
  binding signal (z-score (mean of top ten 7-mers)): 19.4

## UUUUUU [RNAcompete motif RNCMPT00256]
[2]
  binding signal (z-score (mean of top ten 7-mers)): 11.2

## AGACACA [RNAcompete motif RNCMPT00278]
[3]
  binding signal (z-score (mean of top ten 7-mers)): 12.7

## UGUUUG [RNAcompete motif RNCMPT00258]
[4]
  binding signal (z-score (mean of top ten 7-mers)): 7.64

## AGACGU [RNAcompete motif RNCMPT00002]
ANKHD1 (Homo sapiens)
  binding signal (z-score (mean of top ten 7-mers)): 22.8

## UNUUUGUGU [RNAcompete motif RNCMPT00270]
[5]
  binding signal (z-score (mean of top ten 7-mers)): 14.8

## AGAAANA [RNAcompete motif RNCMPT00253]
[6]
  binding signal (z-score (mean of top ten 7-mers)): 9.59

## AAAUU [RNAcompete motif RNCMPT00281]
[7]
  binding signal (z-score (mean of top ten 7-mers)): 7.01

## AGAACA [RNAcompete motif RNCMPT00263]
[8]
  binding signal (z-score (mean of top ten 7-mers)): 8.19

## UUUUCU [RNAcompete motif RNCMPT00268]
PTBP1 (Homo sapiens)
  binding signal (z-score (mean of top ten 7-mers)): 6.14

## GAACG [RNAcompete motif RNCMPT00254]
[9]
  binding signal (z-score (mean of top ten 7-mers)): 15.2

## AAAACAAA [RNAcompete motif RNCMPT00255]
[10]
  binding signal (z-score (mean of top ten 7-mers)): 8.22

## AGAAAA [RNAcompete motif RNCMPT00257]
[11]
  binding signal (z-score (mean of top ten 7-mers)): 12.5

## UUUUUU [RNAcompete motif RNCMPT00262]
[12]
  binding signal (z-score (mean of top ten 7-mers)): 11.3

## AGAGAAA [RNAcompete motif RNCMPT00090]
SRSF10 (Homo sapiens)
  binding signal (z-score (mean of top ten 7-mers)): 14.3

## ACCAUG [RNAcompete motif RNCMPT00259]
[13]
  binding signal (z-score (mean of top ten 7-mers)): 19.9

## GAUGAUU [RNAcompete motif RNCMPT00280]
[14]
  binding signal (z-score (mean of top ten 7-mers)): 7.8

## UAGGUA [RNAcompete motif RNCMPT00272]
[15]
  binding signal (z-score (mean of top ten 7-mers)): 8.77

## CUCUGU [RNAcompete motif RNCMPT00273]
[16]
  binding signal (z-score (mean of top ten 7-mers)): 6.48

## GAUGAU [RNAcompete motif RNCMPT00279]
RBM47 (Gallus gallus)
  binding signal (z-score (mean of top ten 7-mers)): 8.4
